The substances below were run against PNK-FHA (FHA domain of human polynucleotide kinase 3'-phosphatase, amino acids 1-109) (human) (UniProt Q96T60) (assay: ITC).

| Substance | Kd | stoichiometry N |
| --- | --- | --- |
| XRCC1 peptide YAGSTDENpTDSE, phosphorylated on Thr523 | 13.5 µM |  |
| XRCC1 peptide YAGSpTDENpTDSE, phosphorylated on Thr519 and Thr523 | 0.76 µM | 0.51 |
| XRCC1 peptide YAGpSTDENpTDSE, phosphorylated on Ser518 and Thr523 | 24.2 µM |  |
| XRCC1 peptide YAGpSpTDENpTDSE, phosphorylated on Ser518, Thr519 and Thr523 |  | 0.46 |

The remaining substances from weak to strong by Kd, led by results:

| Kd | stoichiometry N | Substance |
| --- | --- | --- |
| 10.6 µM |  | XRCC1 peptide YAGSpTDENTDSE, phosphorylated on Thr519 |
| 1.23 µM | 0.51 | XRCC1 peptide YAGpSpTDENTDSE, phosphorylated on Ser518 and Thr519 |

Molecular target: PNK-FHA (FHA domain of human polynucleotide kinase 3'-phosphatase, amino acids 1-109) (human) (UniProt Q96T60)
Assay: ITC
Remark: another data set of the same source

| Substance | Kd |
| --- | --- |
| XRCC1 peptide YAGSpTDENpTDSE, phosphorylated on Thr519 and Thr523 | 0.7 µM |

— article PMC2655680
